{"source": "paper PMC4714512", "data": [{"molecular_target": "Human histone H3.5 (human) (UniProt Q6NXT2)", "assay": "native gel or EMSA; nucleosomes reconstituted with 146 base-pair human alpha-satellite DNA by salt dialysis from 2 M KCl, heated at 55 °C for 2 h, purified by preparative non-denaturing PAGE; analysed by non-denaturing 6 % PAGE and 18 % SDS-PAGE (histone composition)", "values": [{"substance": "Human histone H2A (from UniProt P04908 1-130) (natural protein)", "stoichiometry N": 1}, {"substance": "Human histone H2B (from UniProt P06899 1-126) (natural protein)", "stoichiometry N": 1}, {"substance": "Human histone H4 (from UniProt P62805 1-103) (natural protein)", "stoichiometry N": 1}]}]}
